Source: paper doi:10.1101/2022.05.25.493364

Target: cGAS (cyclic GMP-AMP synthase) of the Serratia marcescens E2-CBASS operon, N-terminal 6×His-tag (Serratia marcescens)
Test: in vitro covalent bonding assay

rate of isopeptide bond (+DTT) formation: 0.5 min⁻¹
rate of total bond (thioester+isopeptide, -DTT) formation: 0.63 min⁻¹
Substance: E2 of the Serratia marcescens E2-CBASS operon, N-terminal 6×His-tag (enzyme)
